Patent US8147817B2, “IL-33 in the treatment and diagnosis of diseases and disorders” (The Brigham and Women's Hospital, Inc., priority 2006, dated 2012)
Entries after “also recorded” stand apart in the source; their conditions may differ. Where two headings read alike, the source gives them in different places.

Tests used:
[1] = tested on: WT and ST2−/− mice after TAC; conditions: for induction of ANP and BNP gene expression after TAC: left ventricle 1 week after operation;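 for all read-outs here: ST2−/− mice and WT littermates, 8-10 weeks old at the time of TAC surgery where applicable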
Protocol: Targeted ST2 ablated mice and their wild-type littermates were employed for the experiment simultaneously. TAC was produced as described previously (11-13) on 8-10 week old mice. Some mice underwent daily intraperitoneal (i.p.) injection of IL-33 (2 μg suspended in 100 microliters of PBS with 0.2% bovine serum albumin) or vehicle beginning from the day after TAC operation to the day of harvest.
Formalin-fixed, paraffin-embedded sections were prepared as previously described (42). For immunohistochemistry, the first antibodies used were anti-cleaved caspase-3 (Cell Signaling Technology) and anti-mac3 (BD Biosciences, San Jose, Calif.). For TUNEL analysis, the In Situ apoptosis detection kit (Chemicon, Temecula, Calif.) was used along with the manufacturer's protocol with some optimal modifications on the treatment periods.
Targeted ST2−/− mice and their WT littermates were employed for the experiments. TAC was produced as described previously (49, 50) on 8-10 week old mice. All operative procedures were performed by a single operator with over 20 years rodent cardiac surgery experience who was blinded to genotype and the randomized treatment assignment. Following the procedure, each mouse received daily i.p. injection of recombinant rat IL-33 (2 μg) or vehicle from the day after TAC operation until the day of harvest.
Echocardiographic acquisition and analysis were performed by an echocardiographer blinded to treatment group. […] All images were taken at a heart rate greater than 400 beats per minute to minimize effects of anesthesia, using a Sonos-4500 (Philips) and a 15-MHz transducer. Three consecutive cardiac cycles were averaged. Left ventricular mass was calculated by the M-mode method (51). Left ventricular fractional shortening was calculated as (EDD−ESD)/EDD×100%, where EDD is end-diastolic dimension and ESD is end-systolic dimension.
A planimetry image analysis program was used by an investigator blinded to treatment group to quantitate the 30 high power field regions randomly selected in each slice with Hematoxylin-eosin stain (for cross-sectional area) or Sirius-red stain (for fibrotic area). Cross sectional area of cardiomyocytes was measured as described previously (52). Fibrotic area was calculated as (red area/total area)×100%. The scores from all slices were averaged to calculate their respective values.

IκBα = IκBα phosphorylation by Western analysis in cardiac fibroblasts; format: cell-based, rat
Protocol: Western analyses were performed as described previously (45). Membranes were incubated with primary antibodies overnight (anti-p44/42MAPK diluted 1:500; phospho-p44/42MAPK (Thr202/Tyr204) 1:1000; phospho-JNK (Thr183/Tyr185) 1:500; p38MAPK 1:500; phospho-p38MAPK (Thr180/Tyr182) 1:500; phospho-Akt (Ser473) 1:1000 and phospho-IκBα 1:1000, all from Cell Signaling, anti-mouse ST2L, from R&D 1:1000 and anti-IL-33 as described above, 1:500) at 4° C., detected with horseradish peroxidase-conjugated antibodies and enhanced chemiluminescence.

cardiac fibroblasts = assay: Cardiac fibroblast proliferation; format: cell-based, rat
Protocol: A 3-(4,5-dimethylthiazol-2-yl)-5-(3-carboxymethoxyphenyl)-2-(4-sulfophenyl)-2H-tetrazolium salt (MTS) assay was performed with CellTiter 96 AQueous One Solution Cell Proliferation Assay kit (Promega, Madison, Wis.). Actual cell number in each group was also counted manually after exclusion of dead cells by Trypan blue staining. Cell cycle of cardiac fibroblasts was analyzed as previously described (9). Briefly, cardiac fibroblasts were seeded at a density of 1.5×10^5 cells per 60 mm dishes and serum-starved for 24 hrs. After treatment, cells were trypsinized, fixed in 80% ethanol at −20° C. and labeled with 50 ug/ml propidium iodide (Sigma) with 50 ug/ml RNaseA (Sigma). Then propidium iodide fluorescence was analyzed by flow cytometer (CYTOMICS FC500, Beckman Coulter, Fullerton, Calif.). Total population was initially gated to remove cell debris, and 1×10^4 cells were assessed for each DNA histogram using CXP software (Beckman Coulter).

[2] = tested on: rat neonatal cardiomyocytes; assay: In vitro cell size measurement of cardiomyocytes; format: cell-based; conditions: with or without angiotensin-II (0.1 μM), IL-33 (10 ng/ml), anti-ST2 antibody (100 μg/ml)
Protocol: Sarcomeric α-actinin staining for cardiomyocytes and BrdUrd labeling for cardiac fibroblasts were performed as described previously (5). Mouse monoclonal antibody to sarcomeric α-actinin (EA-53, Sigma) was diluted 1:100 and used. For cardiomyocyte size, cells were visualized using an inverted fluorescent microscope (IX-70; Olympus), and the surface area of the cardiomyocytes was calculated with ImagePro Express software. Cells from randomly selected fields were analyzed.
Cell culture of rat neonatal cardiomyocytes and cardiac fibroblasts was performed as previously described (42, 43). Briefly, hearts from 1-3 day-old Sprague-Dawley rat neonates (Charles River) were digested with trypsin (1 mg/ml, GIBCO) and collagenase-II (0.8 mg/ml, Worthington), and plated on non-coated culture dishes for 1.5 hrs. Attached cells were further cultured with Dulbecco's Modified Essential Medium (GIBCO) containing 10% fetal bovine serum and used as cardiac fibroblasts after 2 passages. […]
Immunofluorescence staining on paraffin-embedded mice hearts or rat neonatal cardiomyocyte cell culture was performed as described previously (42, 45). […] For measuring cardiomyocyte size, the surface area of the cells was calculated with ImagePro Express software. Cells from randomly selected fields were analyzed.

NF-κB = NF-κB luciferase reporter assay in neonatal rat cardiomyocytes; format: cell-based; conditions: angiotensin-II with IL-33 co-treatment, n=3
Protocol: Neonatal rat cardiomyocytes were transfected using Lipofectamine Plus (Invitrogen) with a luciferase reporter plasmid for NF-κB and with β-galactosidase, as described previously (47). After 48 hours of transfection, cells were then stimulated for an additional 24 hours, lysed and treated with Dual-Light assay system (Applied Biosystems, Foster City, Calif.), and analyzed using a luminometer (PerkinElmer Waltham, Calif.).

[3] = tested on: rat neonatal cardiomyocytes; assay: Cardiomyocyte apoptosis assays (H2O2 stimulus); format: cell-based
Protocol: For cardiomyocyte apoptosis assays, cardiomyocytes were plated overnight, cultured serum-free for 24 hours, and then subjected to 0.1 mM H2O2 for another 24 hours with or without treatment with purified rat mature IL-33 protein. TUNEL staining (FIG. 19) was performed using a TUNEL staining kit (Roche Diagnostics Corp., Indianapolis, Ind.). For DNA fragmentation experiments (FIGS. 19 and 20), cells were trypsinized, fixed with ethanol, incubated in RNase, stained with propidium iodide, and then subjected to flow cytometry (Cytomics FC 500; Beckman Coulter).
Membranes (PVDF, PerkinElmer) were incubated with primary antibodies overnight (anti-cleaved caspase-3, 1:1000; from Cell Signaling Technology) at 4° C., detected with horseradish peroxidase-conjugated antibodies (Bio-Rad) and enhanced chemiluminescence (FIG. 20).

[4] = ST2−/− mice, 4 weeks after operation
[5] = WT mice surviving 8 weeks after TAC
[6] = WT mice, IL-33 2 μg/day i.p. for 4 weeks

B1: IL-33: recombinant mature rat IL-33, starting with amino acid 109 of the full-length protein, N-terminal His tag (GenBank BC081993) (protein)
chain: SIQGTSLLTESCALSTYNDQSVSFVLENGCYVINVEDCGKNQEKDKVLLRYYESSFPAQSGDGVDGKKLMVNMSPIKDTDIWLNANDKDYSVELQKGDVSPPDQAFFVLHKKSSDFVSFECKNLPGTYIGVKDNQLALVEENDESCNNIMFKLSKM
modifications: left off: small tags and cut ends
- percentage of TUNEL positive nuclei in myocardium ([1]; 4 weeks after operation): not changed; also recorded: did not affect TUNEL positivity
- Gross Heart/Body Weight after TAC ([1]; ST2−/− mice): not in ST2−/− mice
- NF-κB nuclear binding activity in left ventricular myocardium ([1]; ST2−/− mice, 1 week after operation): not in ST2−/− mice; also recorded: modest increase in NF-κB binding
- hypertrophy by echocardiography after TAC [1, 4]: not in ST2−/− littermates
- increased left ventricular dilation and reduced fractional shortening after TAC [1, 4]: not reversed
- induction of ANP and BNP gene expression after TAC ([1]; ST2−/− mice): not in ST2−/− mice
- Gross Heart/Body Weight after TAC ([1]; WT mice): antihypertrophic effect of IL-33 in WT mice
- survival after TAC ([1]; WT mice): significantly improved survival in WT mice after TAC; also recorded: improved pathological changes and survival in WT mice
- fractional shortening (echocardiography) [1, 5]: increased fractional shortening
- left ventricular wall thickness (echocardiography) [1, 5]: reduced wall thickness
- NF-κB nuclear binding activity in left ventricular myocardium after TAC ([1]; WT mice, 1 week after operation): inhibited NF-κB induction only in WT mice; also recorded: reversed these changes only in WT mice
- macrophage infiltration in myocardium after TAC ([1]; WT mice, 1 week, co-treatment with IL-33): decreased by co-treatment with IL-33; also recorded: reduced macrophage infiltration after TAC only in WT mice
- hypertrophy by echocardiography after TAC ([1]; WT mice, 4 weeks after operation): reduced hypertrophy only in WT mice
- cardiac fibrosis (Sirius-red) after TAC [1, 6]: reduced cardiac fibrosis; also recorded: significantly improved these changes in WT mice
- cardiomyocyte hypertrophy (cross-sectional area) after TAC [1, 6]: reduced cardiac fibrosis and cardiomyocyte hypertrophy; also recorded: significantly improved these changes in WT mice
- induction of ANP and BNP gene expression after TAC ([1]; WT mice): markedly attenuated induction of both genes in WT; also recorded: effectively reversed the induction of these hypertrophic genes in WT mice with TAC; also recorded: reversed these changes only in WT mice
- macrophage infiltration in myocardium, IL-33 alone ([1]; WT or ST2−/− mice without TAC, 1 week of treatment): did not significantly increase macrophage infiltration; also recorded: not observed; also recorded: did not induce macrophage infiltration
- echocardiographic parameters under non-stress conditions ([1]; no TAC): no significant change
- IκBα phosphorylation by agent alone (IκBα): induced IκBα phosphorylation in both cell types
- cardiac fibroblast proliferation, IL-33 alone (cardiac fibroblasts): can induce cardiac fibroblast proliferation
- cardiac fibroblast proliferation induced by angiotensin II (cardiac fibroblasts; co-treatment with IL-33): antagonizes cardiac fibroblast proliferation induced by angiotensin II; also recorded: antagonizes the proliferation induced by angiotensin II
- cardiomyocyte cell size [2]: antihypertrophic effect of IL-33 was further confirmed
- increase of NF-κB promoter activity (NF-κB): 8+/−12%
- apoptosis (TUNEL staining, flow cytometry and caspase-3 evaluation together) [3]: can prevent apoptosis in cardiac myocytes
- apoptosis by TUNEL staining [3]: can prevent apoptosis in cardiac myocytes; also recorded: can reduce apoptosis in cardiac myocytes
- apoptosis by caspase-3 activation [3]: can prevent apoptosis in cardiac myocytes
- apoptosis by flow cytometry after propidium iodide staining [3]: can prevent apoptosis in cardiac myocytes
